# Measurements taken from US20150284431A1.
# Square brackets hold non-standard residues; d marks the D form. * marks the point of attachment. Butanoyl(4-Ph) = O=C(CCCc1ccccc1)*; Butanoyl(4-ethynyl) = C#CCCCC(=O)*
# Legend:
# [1] = target: human melanocortin 1 receptor (human) (UniProt Q01726); assay: competition with Eu-NDP-alpha-MSH, Eu time-resolved fluorescence, HCT116/hMC1R cells; concentration normalized to the targeting group
# [2] = target: human melanocortin 1 receptor (human) (UniProt Q01726); assay: competition with Eu-NDP-alpha-MSH, time-resolved fluorescence; 10% ligand loading
# Sequence of human melanocortin 1 receptor (human) (Q01726 whole entry): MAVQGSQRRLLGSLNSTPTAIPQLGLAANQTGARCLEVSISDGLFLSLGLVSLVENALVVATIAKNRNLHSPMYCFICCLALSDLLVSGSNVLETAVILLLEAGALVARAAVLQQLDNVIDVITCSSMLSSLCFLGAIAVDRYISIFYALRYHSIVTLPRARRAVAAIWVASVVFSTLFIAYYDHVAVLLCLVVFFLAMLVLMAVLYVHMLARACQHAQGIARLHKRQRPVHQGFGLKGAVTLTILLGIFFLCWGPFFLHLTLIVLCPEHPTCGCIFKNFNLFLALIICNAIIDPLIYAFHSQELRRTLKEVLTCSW
Binder,Ki [1] [nM],Ki [2] [nM]
"HFRWGK (peptide, part only; not given: triblock polymer carrier, part only, not fully specified; N-terminal 4-phenylbutyryl; DPhe at 2; Lys(hex-5-ynoyl) at 6 joined by a 1,2,3-triazole to the PEG block of the triblock polymer; C-terminal amide) [4-targeted micelles]",11.5,–
"{Butanoyl(4-Ph)}-H[dF]RWGK(Butanoyl(4-ethynyl))-NH2 (peptide, part only; not given: crosslinked triblock polymer carrier, part only, also: micelle crosslinked with Fe(III), triblock polymer block lengths not given here) [4-targeted crosslinked (XL) micelle]",–,2.9

# Next, values leading:
Ki [1] [nM],Ki [2] [nM],Binder
25.6,–,"HFRWGK (peptide, part only; not given: triblock polymer, part only, N-terminal 4-phenylbutyryl; DPhe at 2; Lys(hex-5-ynoyl) at 6 joined by a 1,2,3-triazole (click reaction) to the azide end of the PEG block of the triblock polymer; C-terminal amide) [4-targeted triblock polymer]"
–,12,"{Butanoyl(4-Ph)}-H[dF]RWGK(Butanoyl(4-ethynyl))-NH2 (peptide, part only; not given: triblock polymer carrier, part only, also: micelle not crosslinked, triblock polymer block lengths not given here) [4-targeted uncrosslinked (UXL) micelle]"
